Key:
[1] = molecular target: T1, GST-SIP1CZF (mouse, UniProt Q9R0G7 Q9R0G7:957-1156); experiment: EMSA; strong; conditions: tags: GST; label: 32P
T1 sequence: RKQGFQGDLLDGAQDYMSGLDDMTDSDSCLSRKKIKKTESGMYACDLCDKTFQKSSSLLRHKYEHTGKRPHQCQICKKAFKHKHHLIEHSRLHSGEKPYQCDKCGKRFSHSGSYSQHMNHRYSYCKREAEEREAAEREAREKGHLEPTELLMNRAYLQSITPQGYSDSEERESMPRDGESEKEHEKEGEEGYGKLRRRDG
Experimental: (§1) The DNA binding assay (20 μl) was performed at 25° C., with 1 μg of COS1 total cell protein, […] of poly dI-dC, 10 pg of ³²P-labeled double-stranded oligonucleotide (approx. 10⁴ Cerenkov counts) in the δEF1 binding buffer described previously (30). For supershift experiments, the extracts were incubated with anti-Myc (Santa Cruz) or anti-FLAG (Kodak) antibodies. For competition, an excess of unlabeled double-stranded oligonucleotides was added together with the labeled probe. The binding reaction was loaded onto a 4% polyacrylamide gel (acrylamide/bis-acrylamide, 19:1) prepared in 0.5XTBE buffer. Following electrophoresis, gels were dried, and exposed to X-Ray film. All experiments were repeated at least three times.
(§2) The integrity of both SIP1 zinc finger clusters is necessary for the binding of SIP1FS to DNA: Mutations within NZF3, NZF4, CZF2, CZF3 abolish the DNA-binding activity of either the SIP1NZF or SIP1CZF zinc finger clusters. The wild type and mutated zinc finger clusters were fused to GST and the fusion proteins were produced in E. Coli. After purification, an equal amount of each fusion proteins (0.1 ng) was incubated with 10 pg of labeled Xbra-E probe. Mutations within NZF3, NZF4, CZF2 or CZF3 affect the binding of SIP1FS to the Xbra-WT probe. […]

[2] = molecular target: T2, GST-SIP1NZF (mouse, UniProt Q9R0G7 Q9R0G7:90-383); experiment: EMSA; strong; conditions: tags: GST; label: 32P
T2 sequence: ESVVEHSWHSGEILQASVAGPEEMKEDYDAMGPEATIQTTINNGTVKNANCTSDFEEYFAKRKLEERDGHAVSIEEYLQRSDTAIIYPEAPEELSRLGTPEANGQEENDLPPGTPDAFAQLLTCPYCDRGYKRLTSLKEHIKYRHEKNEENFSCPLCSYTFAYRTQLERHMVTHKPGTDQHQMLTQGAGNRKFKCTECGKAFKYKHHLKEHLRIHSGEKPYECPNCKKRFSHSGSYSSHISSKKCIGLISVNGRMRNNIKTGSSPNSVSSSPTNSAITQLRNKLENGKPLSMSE
Experimental: as §1, §2

B1: Xbra-E (dsDNA)
DNA 1: TAAAGTGACCAGGTGTCAGTTCT
DNA 2: AGAACTGACACCTGGTCACTTTA
B1: binds [1]; binds [2].

From patent publication US20030044809A1, “Nucleic acid binding of multi-zinc finger transcription factors” (published 2003)
